Laboratory results published in patent publication US20120165503A1 (Merck Sharp & Dohme, published 2012).
*1 amine or outer side, *2 acyl side, *3 side chain or, on linkers, in order; H or OH if unused. Where no end group is shown, it is not given here. Side-chain parts run from the residue outwards. [ ]: non-standard residue; d: D form. The star is where a group is joined. d(γGlu) = O=C(O)[C@@H](CCC(=O)[*:2])N[*:1]; γGlu = O=C(O)[C@H](CCC(=O)[*:2])N[*:1]; Stearoyl = CCCCCCCCCCCCCCCCCC(=O)*; Palmitoyl = CCCCCCCCCCCCCCCC(=O)*; Myristoyl = CCCCCCCCCCCCCC(=O)*; Aib = CC(C)(N)C(=O)O

B1: MM102 (peptide)
peptide: H[dS]QGTFTSDK([γGlu-γGlu-Palmitoyl])SKYLD[Aib]RRAQDFVQWLMNTE[γGlu]-NH2
modifications: N-terminus assumed
SMILES: CCCCCCCCCCCCCCCC(=O)N[C@@H](CCC(=O)N[C@@H](CCC(=O)NCCCC[C@H](NC(=O)[C@H](CC(=O)O)NC(=O)[C@H](CO)NC(=O)[C@@H](NC(=O)[C@H](Cc1ccccc1)NC(=O)[C@@H](NC(=O)CNC(=O)[C@H](CCC(N)=O)NC(=O)[C@@H](CO)NC(=O)[C@@H](N)Cc1c[nH]cn1)[C@@H](C)O)[C@@H](C)O)C(=O)N[C@@H](CO)C(=O)N[C@@H](CCCCN)C(=O)N[C@@H](Cc1ccc(O)cc1)C(=O)N[C@@H](CC(C)C)C(=O)N[C@@H](CC(=O)O)C(=O)NC(C)(C)C(=O)N[C@@H](CCCNC(=N)N)C(=O)N[C@@H](CCCNC(=N)N)C(=O)N[C@@H](C)C(=O)N[C@@H](CCC(N)=O)C(=O)N[C@@H](CC(=O)O)C(=O)N[C@@H](Cc1ccccc1)C(=O)N[C@H](C(=O)N[C@@H](CCC(N)=O)C(=O)N[C@@H](Cc1c[nH]c2ccccc12)C(=O)N[C@@H](CC(C)C)C(=O)N[C@@H](CCSC)C(=O)N[C@@H](CC(N)=O)C(=O)N[C@H](C(=O)N[C@@H](CCC(=O)O)C(=O)N[C@@H](CCC(N)=O)C(=O)O)[C@@H](C)O)C(C)C)C(=O)O)C(=O)O
B2: MM103 (peptide)
peptide: H[dS]QGTFTSDK([γGlu-γGlu-Palmitoyl])SKYLD[Aib]RRAQDFVQWLMNT[dK][γGlu]-NH2
modifications: N-terminus assumed
SMILES: CCCCCCCCCCCCCCCC(=O)N[C@@H](CCC(=O)N[C@@H](CCC(=O)NCCCC[C@H](NC(=O)[C@H](CC(=O)O)NC(=O)[C@H](CO)NC(=O)[C@@H](NC(=O)[C@H](Cc1ccccc1)NC(=O)[C@@H](NC(=O)CNC(=O)[C@H](CCC(N)=O)NC(=O)[C@@H](CO)NC(=O)[C@@H](N)Cc1c[nH]cn1)[C@@H](C)O)[C@@H](C)O)C(=O)N[C@@H](CO)C(=O)N[C@@H](CCCCN)C(=O)N[C@@H](Cc1ccc(O)cc1)C(=O)N[C@@H](CC(C)C)C(=O)N[C@@H](CC(=O)O)C(=O)NC(C)(C)C(=O)N[C@@H](CCCNC(=N)N)C(=O)N[C@@H](CCCNC(=N)N)C(=O)N[C@@H](C)C(=O)N[C@@H](CCC(N)=O)C(=O)N[C@@H](CC(=O)O)C(=O)N[C@@H](Cc1ccccc1)C(=O)N[C@H](C(=O)N[C@@H](CCC(N)=O)C(=O)N[C@@H](Cc1c[nH]c2ccccc12)C(=O)N[C@@H](CC(C)C)C(=O)N[C@@H](CCSC)C(=O)N[C@@H](CC(N)=O)C(=O)N[C@H](C(=O)N[C@H](CCCCN)C(=O)N[C@@H](CCC(N)=O)C(=O)O)[C@@H](C)O)C(C)C)C(=O)O)C(=O)O
B3: MM113 (peptide)
peptide: H[dS]QGTFTSDK([γGlu-γGlu-Palmitoyl])SKYLD[Aib]RRAQDFVQWLMNTE[d(γGlu)]-NH2
modifications: N-terminus assumed
SMILES: CCCCCCCCCCCCCCCC(=O)N[C@@H](CCC(=O)N[C@@H](CCC(=O)NCCCC[C@H](NC(=O)[C@H](CC(=O)O)NC(=O)[C@H](CO)NC(=O)[C@@H](NC(=O)[C@H](Cc1ccccc1)NC(=O)[C@@H](NC(=O)CNC(=O)[C@H](CCC(N)=O)NC(=O)[C@@H](CO)NC(=O)[C@@H](N)Cc1c[nH]cn1)[C@@H](C)O)[C@@H](C)O)C(=O)N[C@@H](CO)C(=O)N[C@@H](CCCCN)C(=O)N[C@@H](Cc1ccc(O)cc1)C(=O)N[C@@H](CC(C)C)C(=O)N[C@@H](CC(=O)O)C(=O)NC(C)(C)C(=O)N[C@@H](CCCNC(=N)N)C(=O)N[C@@H](CCCNC(=N)N)C(=O)N[C@@H](C)C(=O)N[C@@H](CCC(N)=O)C(=O)N[C@@H](CC(=O)O)C(=O)N[C@@H](Cc1ccccc1)C(=O)N[C@H](C(=O)N[C@@H](CCC(N)=O)C(=O)N[C@@H](Cc1c[nH]c2ccccc12)C(=O)N[C@@H](CC(C)C)C(=O)N[C@@H](CCSC)C(=O)N[C@@H](CC(N)=O)C(=O)N[C@H](C(=O)N[C@@H](CCC(=O)O)C(=O)N[C@H](CCC(N)=O)C(=O)O)[C@@H](C)O)C(C)C)C(=O)O)C(=O)O
B4: MM115 (peptide)
peptide: H[dS]QGTFTSDK([Arg-Arg-Palmitoyl])SKYLDERRAQDFVQWLMNTK[γGlu]-NH2
modifications: N-terminus assumed
SMILES: CCCCCCCCCCCCCCCC(=O)N[C@@H](CCCNC(=N)N)C(=O)N[C@@H](CCCNC(=N)N)C(=O)NCCCC[C@H](NC(=O)[C@H](CC(=O)O)NC(=O)[C@H](CO)NC(=O)[C@@H](NC(=O)[C@H](Cc1ccccc1)NC(=O)[C@@H](NC(=O)CNC(=O)[C@H](CCC(N)=O)NC(=O)[C@@H](CO)NC(=O)[C@@H](N)Cc1c[nH]cn1)[C@@H](C)O)[C@@H](C)O)C(=O)N[C@@H](CO)C(=O)N[C@@H](CCCCN)C(=O)N[C@@H](Cc1ccc(O)cc1)C(=O)N[C@@H](CC(C)C)C(=O)N[C@@H](CC(=O)O)C(=O)N[C@@H](CCC(=O)O)C(=O)N[C@@H](CCCNC(=N)N)C(=O)N[C@@H](CCCNC(=N)N)C(=O)N[C@@H](C)C(=O)N[C@@H](CCC(N)=O)C(=O)N[C@@H](CC(=O)O)C(=O)N[C@@H](Cc1ccccc1)C(=O)N[C@H](C(=O)N[C@@H](CCC(N)=O)C(=O)N[C@@H](Cc1c[nH]c2ccccc12)C(=O)N[C@@H](CC(C)C)C(=O)N[C@@H](CCSC)C(=O)N[C@@H](CC(N)=O)C(=O)N[C@H](C(=O)N[C@@H](CCCCN)C(=O)N[C@@H](CCC(N)=O)C(=O)O)[C@@H](C)O)C(C)C
B5: MM116 (peptide)
peptide: H[dS]QGTFTSDK([homocysteic acid-homocysteic acid-Palmitoyl])SKYLDERRAQDFVQWLMNTK[γGlu]-NH2
B6: MM117 (peptide)
peptide: H[dS]QGTFTSDK([dE-dE-Palmitoyl])SKYLDERRAQDFVQWLMNTK[γGlu]-NH2
B7: MM121 (peptide)
peptide: H[dS]QGTFTSDK([γGlu-γGlu-Myristoyl])SKYLD[Aib]RRAQDFVQWLMNTK[γGlu]-NH2
modifications: N-terminus assumed
SMILES: CCCCCCCCCCCCCC(=O)N[C@@H](CCC(=O)N[C@@H](CCC(=O)NCCCC[C@H](NC(=O)[C@H](CC(=O)O)NC(=O)[C@H](CO)NC(=O)[C@@H](NC(=O)[C@H](Cc1ccccc1)NC(=O)[C@@H](NC(=O)CNC(=O)[C@H](CCC(N)=O)NC(=O)[C@@H](CO)NC(=O)[C@@H](N)Cc1c[nH]cn1)[C@@H](C)O)[C@@H](C)O)C(=O)N[C@@H](CO)C(=O)N[C@@H](CCCCN)C(=O)N[C@@H](Cc1ccc(O)cc1)C(=O)N[C@@H](CC(C)C)C(=O)N[C@@H](CC(=O)O)C(=O)NC(C)(C)C(=O)N[C@@H](CCCNC(=N)N)C(=O)N[C@@H](CCCNC(=N)N)C(=O)N[C@@H](C)C(=O)N[C@@H](CCC(N)=O)C(=O)N[C@@H](CC(=O)O)C(=O)N[C@@H](Cc1ccccc1)C(=O)N[C@H](C(=O)N[C@@H](CCC(N)=O)C(=O)N[C@@H](Cc1c[nH]c2ccccc12)C(=O)N[C@@H](CC(C)C)C(=O)N[C@@H](CCSC)C(=O)N[C@@H](CC(N)=O)C(=O)N[C@H](C(=O)N[C@@H](CCCCN)C(=O)N[C@@H](CCC(N)=O)C(=O)O)[C@@H](C)O)C(C)C)C(=O)O)C(=O)O
B8: MM127 (peptide)
peptide: H[dS]QGTFTSDK([γGlu-γGlu-Palmitoyl])SKYLD[Aib]RAAQDFVQWLMDTK[γGlu]-NH2
modifications: N-terminus assumed
SMILES: CCCCCCCCCCCCCCCC(=O)N[C@@H](CCC(=O)N[C@@H](CCC(=O)NCCCC[C@H](NC(=O)[C@H](CC(=O)O)NC(=O)[C@H](CO)NC(=O)[C@@H](NC(=O)[C@H](Cc1ccccc1)NC(=O)[C@@H](NC(=O)CNC(=O)[C@H](CCC(N)=O)NC(=O)[C@@H](CO)NC(=O)[C@@H](N)Cc1c[nH]cn1)[C@@H](C)O)[C@@H](C)O)C(=O)N[C@@H](CO)C(=O)N[C@@H](CCCCN)C(=O)N[C@@H](Cc1ccc(O)cc1)C(=O)N[C@@H](CC(C)C)C(=O)N[C@@H](CC(=O)O)C(=O)NC(C)(C)C(=O)N[C@@H](CCCNC(=N)N)C(=O)N[C@@H](C)C(=O)N[C@@H](C)C(=O)N[C@@H](CCC(N)=O)C(=O)N[C@@H](CC(=O)O)C(=O)N[C@@H](Cc1ccccc1)C(=O)N[C@H](C(=O)N[C@@H](CCC(N)=O)C(=O)N[C@@H](Cc1c[nH]c2ccccc12)C(=O)N[C@@H](CC(C)C)C(=O)N[C@@H](CCSC)C(=O)N[C@@H](CC(=O)O)C(=O)N[C@H](C(=O)N[C@@H](CCCCN)C(=O)N[C@@H](CCC(N)=O)C(=O)O)[C@@H](C)O)C(C)C)C(=O)O)C(=O)O
B9: MM132 (peptide)
peptide: H[dS]QGTFTSDK([γGlu-γGlu-Stearoyl])SKYLD[Aib]RRAQDFVQWLMNTK[γGlu]-NH2
modifications: N-terminus assumed
SMILES: CCCCCCCCCCCCCCCCCC(=O)N[C@@H](CCC(=O)N[C@@H](CCC(=O)NCCCC[C@H](NC(=O)[C@H](CC(=O)O)NC(=O)[C@H](CO)NC(=O)[C@@H](NC(=O)[C@H](Cc1ccccc1)NC(=O)[C@@H](NC(=O)CNC(=O)[C@H](CCC(N)=O)NC(=O)[C@@H](CO)NC(=O)[C@@H](N)Cc1c[nH]cn1)[C@@H](C)O)[C@@H](C)O)C(=O)N[C@@H](CO)C(=O)N[C@@H](CCCCN)C(=O)N[C@@H](Cc1ccc(O)cc1)C(=O)N[C@@H](CC(C)C)C(=O)N[C@@H](CC(=O)O)C(=O)NC(C)(C)C(=O)N[C@@H](CCCNC(=N)N)C(=O)N[C@@H](CCCNC(=N)N)C(=O)N[C@@H](C)C(=O)N[C@@H](CCC(N)=O)C(=O)N[C@@H](CC(=O)O)C(=O)N[C@@H](Cc1ccccc1)C(=O)N[C@H](C(=O)N[C@@H](CCC(N)=O)C(=O)N[C@@H](Cc1c[nH]c2ccccc12)C(=O)N[C@@H](CC(C)C)C(=O)N[C@@H](CCSC)C(=O)N[C@@H](CC(N)=O)C(=O)N[C@H](C(=O)N[C@@H](CCCCN)C(=O)N[C@@H](CCC(N)=O)C(=O)O)[C@@H](C)O)C(C)C)C(=O)O)C(=O)O

Legend:
human GLP-1 receptor = human GLP-1 receptor (human, UniProt P43220 24-463); assay: cell-based or functional assay
human glucagon receptor = human glucagon receptor (human, UniProt P47871 26-477); assay: cell-based or functional assay
Chain of human glucagon receptor (P47871 26-477): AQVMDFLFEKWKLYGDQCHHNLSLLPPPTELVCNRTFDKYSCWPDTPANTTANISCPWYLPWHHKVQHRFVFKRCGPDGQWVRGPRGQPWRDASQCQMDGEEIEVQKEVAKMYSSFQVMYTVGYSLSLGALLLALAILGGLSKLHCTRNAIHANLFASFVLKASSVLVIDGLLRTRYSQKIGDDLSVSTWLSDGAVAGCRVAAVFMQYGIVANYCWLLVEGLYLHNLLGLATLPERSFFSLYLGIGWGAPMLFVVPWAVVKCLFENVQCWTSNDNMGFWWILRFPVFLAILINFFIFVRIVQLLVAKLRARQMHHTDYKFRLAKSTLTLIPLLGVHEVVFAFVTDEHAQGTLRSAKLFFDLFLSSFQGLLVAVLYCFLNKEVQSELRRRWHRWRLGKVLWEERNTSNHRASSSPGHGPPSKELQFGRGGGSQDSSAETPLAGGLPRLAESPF

Row | Binder | hGLP-1R EC50 (human GLP-1 receptor) [nM] | hGCGR EC50 (human glucagon receptor) [nM]
1 | B1 | 0.034 | 0.003
2 | B2 | 0.026 | 0.005
3 | B3 | 0.023 | 0.006
4 | B4 | 1.08 | 1.31
5 | B5 | 0.132 | 0.85
6 | B6 | 0.93 | 0.25
7 | B7 | 0.131 | 0.006
8 | B8 | 0.004 | 0.004
9 | B9 | 0.024 | 0.004
